Results: US20240124585A1 (SUTRO BIOPHARMA, published 2024)
Read-outs that look alike come from different tables or passages of the source.

T1: cynomolgus CD3 epsilon (cynomolgus monkey, UniProt Q95LI5 22-117, limits assumed)
T1 construct: Recombinant protein; also called cyno CD3E
T1 sequence: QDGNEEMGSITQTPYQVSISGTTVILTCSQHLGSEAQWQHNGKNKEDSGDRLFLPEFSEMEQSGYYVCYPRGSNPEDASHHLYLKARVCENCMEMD


Experiments:
cynomolgus CD3 epsilon = target: T1, cynomolgus CD3 epsilon; assay: SPR (Biacore), antibody captured, cynomolgus CD3 epsilon analyte
[1] = target: T2, human CD3 on T-cell lines (CD3-expressing Jurkat cells; HUT78 cells) (human, UniProt P07766 23-207); assay: flow cytometry, HUT78 cells
T2 construct: On cells it stands in the CD3/TCR complex
T2 sequence (P07766 23-207 limits assumed): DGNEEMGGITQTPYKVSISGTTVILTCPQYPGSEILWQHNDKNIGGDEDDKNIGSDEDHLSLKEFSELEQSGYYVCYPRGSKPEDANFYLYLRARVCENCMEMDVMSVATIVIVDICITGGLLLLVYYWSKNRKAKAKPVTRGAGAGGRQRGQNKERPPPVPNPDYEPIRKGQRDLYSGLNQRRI

[2] = target: T3, human CD3 epsilon (Acro Cat #CDE-H5223) (human, UniProt P07766 23-126); assay: SPR (Biacore), antibody captured, human CD3 epsilon analyte
T3 construct: Bought recombinant protein; also called rhCD3E
T3 sequence (P07766 23-126 limits assumed): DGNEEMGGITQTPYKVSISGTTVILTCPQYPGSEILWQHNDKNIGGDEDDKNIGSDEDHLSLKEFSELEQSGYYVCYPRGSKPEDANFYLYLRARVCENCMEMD
Description: (§1) Anti-Fab or anti-Fc polyclonal antibodies were immobilized onto a CM5 chip (GE Life Sciences) using amine coupling chemistry (from Amine Coupling Kit, GE Life Sciences). The immobilization steps were carried out at a flow rate of 25 μl/min in 1×HBS-EP+ buffer (GE Life Sciences; 10× Stock diluted before use). The sensor surfaces were activated for 7 min with a mixture of NHS (0.05 M) and EDC (0.2 M). The Anti-Fab or Anti-Fc antibodies were injected over all 4 flow cells at a concentration of 25 μg/mL in 10 mM sodium acetate, pH 4.5, for 7 min. Ethanolamine (1 M, pH 8.5) was injected for 7 min to block any remaining activated groups.
(§2) Off-rate and kinetic binding experiments were performed at 25° C. using 1×HBS-EP+ buffer. Test and control antibodies were injected over the anti-Fab or anti-Fc surface at concentrations of 5-10 μg/mL for 12 seconds at a flow rate of 10 μL/min on flow cells 2, 3 and 4, followed by a buffer wash for 30 seconds at the same flow rate. […] After capturing ligand (antibody) on the anti-Fc or anti-Fab surface, the analyte (human CD3 epsilon, Acro Cat #CDE-H5223) was bound for 180 seconds, followed by a 600 second dissociation phase at a flow rate of 50 μL/min. Between each ligand capture and analyte binding cycle, regeneration was carried out using two injections of 10 mM Glycine pH 2.0 for 30 seconds at 30 μL/min, followed by a 30 second buffer wash step.
(§3) The data was fit with the Biacore T200 Evaluation software, using a 1-1 Langmuir binding model. KD (affinity, nM) was determined as a ratio of the kinetic rate constants calculated from the fits of the association and dissociation phases.

[3] = target: T3, human CD3 epsilon (Acro Cat #CDE-H5223); assay: as above; remark: listed apart in the source
Description: as §1, §2, §3

[4] = target: T2, human CD3 on T-cell lines …; assay: flow cytometry, HUT78 cells; remark: listed apart in the source

Kd (cynomolgus CD3 epsilon) [nM] | koff (cynomolgus CD3 epsilon) [s⁻¹] | kon (cynomolgus CD3 epsilon) [M⁻¹ s⁻¹] | Bmax (MFI) [1] [MFI] | Kd [1] [nM] | Kd [2] [nM] | koff [2] [s⁻¹] | kon [2] [M⁻¹ s⁻¹] | Kd [3] [nM] | koff [3] [s⁻¹] | kon [3] [M⁻¹ s⁻¹] | HUT78 Bmax [4] | Kd [4] [nM] | Binder
2.69 | 0.000573 | 213000 | 1080 | 1.87 | 2.36 | 0.000491 | 208000 | 11 | 0.000453 | 41200 |  |  | 2037-B10_Hc-F29D (antibody, human IgG1, lambda, V domains shown, human IgG1, lambda; also called SRP 2037 F29D; 2037-B10_VH-F29D) VH: EVQLVESGGGLVKPGGSLRLSCAASGFTDNKYAMNWVRQAPGKGLEWVARIRTKYNNYATYYADSVKDRFTISRDDSKNTAYLQMNSLKTEDTAVYYCVRHGNFGNSYISYWAYWGQGTPVTVSS VL: QTVVTQEPSLTVSPGGTVTLTCGSSTGAVTSGYYPNWLQQKPGQAPRGLIGGTKFLAPGTPARFSGSLLGGKAALTLSGVQPEDEAEYYCALWYSNRWVFGGGTQLTVTG
2.09 | 0.000945 | 451000 |  |  |  |  |  | 3.89 | 0.000392 | 101000 | 1250 | 6.35 | SRP 2037-B10 Y55D/LC6 (antibody, human IgG1, kappa, V domains shown, human IgG1, kappa) VH: EVQLVESGGGLVKPGGSLRLSCAASGFTFNKYAMNWVRQAPGKGLEWVARIRTKDNNYATYYADSVKDRFTISRDDSKNTAYLQMNSLKTEDTAVYYCVRHGNFGNSYISYWAYWGQGTPVTVSS VL: DIQMTQSPSSLSASVGDRVTITCGSSTGAVTSGYYPNWLQQKPGQAPRGLIGGTKFLAPGVPSRFSGSLSGGKATLTISSLQPEDFATYYCALWYSNRWVFGGGTKVEIKR
 |  |  |  |  |  |  |  | 5.07 | 0.000441 | 87000 | 1190 | 62.4 | SRP 2037-B10 Y55D/R97D (antibody, human IgG1, lambda, V domains shown, human IgG1, lambda) VH: EVQLVESGGGLVKPGGSLRLSCAASGFTFNKYAMNWVRQAPGKGLEWVARIRTKDNNYATYYADSVKDRFTISRDDSKNTAYLQMNSLKTEDTAVYYCVRHGNFGNSYISYWAYWGQGTPVTVSS VL: QTVVTQEPSLTVSPGGTVTLTCGSSTGAVTSGYYPNWLQQKPGQAPRGLIGGTKFLAPGTPARFSGSLLGGKAALTLSGVQPEDEAEYYCALWYSNDWVFGGGTQLTVTG
 |  |  |  |  |  |  |  |  |  |  | 442 | 174 | SRP 2037-B10 Y55D/LC5 (antibody, human IgG1, kappa, V domains shown, human IgG1, kappa) VH: EVQLVESGGGLVKPGGSLRLSCAASGFTFNKYAMNWVRQAPGKGLEWVARIRTKDNNYATYYADSVKDRFTISRDDSKNTAYLQMNSLKTEDTAVYYCVRHGNFGNSYISYWAYWGQGTPVTVSS VL: DTQVTQSPSLSASVGDRVTITCGSSTGAVTSGYYPNWLQQKPGQAPRGLIGGTKFLAPGVPSRFSGSGSGTDFTLTISSLQPEDFATYYCALWYSNRWVFGGGTKVEIKR
 |  |  |  |  |  |  |  | 3.91 | 0.00029 | 74000 | 2000 | 121 | SRP 2037-B10 Y61D/R97D (antibody, human IgG1, lambda, V domains shown, human IgG1, lambda) VH: EVQLVESGGGLVKPGGSLRLSCAASGFTFNKYAMNWVRQAPGKGLEWVARIRTKYNNYATDYADSVKDRFTISRDDSKNTAYLQMNSLKTEDTAVYYCVRHGNFGNSYISYWAYWGQGTPVTVSS VL: QTVVTQEPSLTVSPGGTVTLTCGSSTGAVTSGYYPNWLQQKPGQAPRGLIGGTKFLAPGTPARFSGSLLGGKAALTLSGVQPEDEAEYYCALWYSNDWVFGGGTQLTVTG
 |  |  |  |  |  |  |  |  |  |  | 523 | 226 | SRP 2037-B10 F104D/LC5 (antibody, human IgG1, kappa, V domains shown, human IgG1, kappa) VH: EVQLVESGGGLVKPGGSLRLSCAASGFTFNKYAMNWVRQAPGKGLEWVARIRTKYNNYATYYADSVKDRFTISRDDSKNTAYLQMNSLKTEDTAVYYCVRHGNDGNSYISYWAYWGQGTPVTVSS VL: DTQVTQSPSLSASVGDRVTITCGSSTGAVTSGYYPNWLQQKPGQAPRGLIGGTKFLAPGVPSRFSGSGSGTDFTLTISSLQPEDFATYYCALWYSNRWVFGGGTKVEIKR
 |  |  |  |  |  |  |  |  |  |  | 772 | 312 | SRP 2037-B10 Y61D/LC5 (antibody, human IgG1, kappa, V domains shown, human IgG1, kappa) VH: EVQLVESGGGLVKPGGSLRLSCAASGFTFNKYAMNWVRQAPGKGLEWVARIRTKYNNYATDYADSVKDRFTISRDDSKNTAYLQMNSLKTEDTAVYYCVRHGNFGNSYISYWAYWGQGTPVTVSS VL: DTQVTQSPSLSASVGDRVTITCGSSTGAVTSGYYPNWLQQKPGQAPRGLIGGTKFLAPGVPSRFSGSGSGTDFTLTISSLQPEDFATYYCALWYSNRWVFGGGTKVEIKR
 |  |  | 88 | 21.9 |  |  | 7720 |  |  |  |  |  | 2037-B10_Lc-W93D (antibody, V domains shown, human IgG1, lambda; also called SRP 2037 W93D; 2037-B10 VL-W93D) VH: not shown VL: QTVVTQEPSLTVSPGGTVTLTCGSSTGAVTSGYYPNWLQQKPGQAPRGLIGGTKFLAPGTPARFSGSLLGGKAALTLSGVQPEDEAEYYCALDYSNRWVFGGGTQLTVTG
3.41 | 0.000558 | 164000 |  |  |  |  |  | 8.62 | 0.000459 | 53200 | 1550 | 17.3 | SRP 2037-B10 S107D/LC6 (antibody, human IgG1, kappa, V domains shown, human IgG1, kappa; also called 2037-B10 IgG S107D Lc6) VH: EVQLVESGGGLVKPGGSLRLSCAASGFTFNKYAMNWVRQAPGKGLEWVARIRTKYNNYATYYADSVKDRFTISRDDSKNTAYLQMNSLKTEDTAVYYCVRHGNFGNDYISYWAYWGQGTPVTVSS VL: DIQMTQSPSSLSASVGDRVTITCGSSTGAVTSGYYPNWLQQKPGQAPRGLIGGTKFLAPGVPSRFSGSLSGGKATLTISSLQPEDFATYYCALWYSNRWVFGGGTKVEIKR
 |  |  |  |  |  |  |  | 6.99 | 0.000115 | 16400 | 2710 | 126 | SRP 2037-B10 F104D/R97D (antibody, human IgG1, lambda, V domains shown, human IgG1, lambda) VH: EVQLVESGGGLVKPGGSLRLSCAASGFTFNKYAMNWVRQAPGKGLEWVARIRTKYNNYATYYADSVKDRFTISRDDSKNTAYLQMNSLKTEDTAVYYCVRHGNDGNSYISYWAYWGQGTPVTVSS VL: QTVVTQEPSLTVSPGGTVTLTCGSSTGAVTSGYYPNWLQQKPGQAPRGLIGGTKFLAPGTPARFSGSLLGGKAALTLSGVQPEDEAEYYCALWYSNDWVFGGGTQLTVTG
5.87 | 0.00121 | 206000 |  |  |  |  |  | 18.5 | 0.000749 | 40500 | 1040 | 3.72 | SRP 2037-B10 F29D/LC6 (antibody, human IgG1, kappa, V domains shown, human IgG1, kappa) VH: EVQLVESGGGLVKPGGSLRLSCAASGFTDNKYAMNWVRQAPGKGLEWVARIRTKYNNYATYYADSVKDRFTISRDDSKNTAYLQMNSLKTEDTAVYYCVRHGNFGNSYISYWAYWGQGTPVTVSS VL: DIQMTQSPSSLSASVGDRVTITCGSSTGAVTSGYYPNWLQQKPGQAPRGLIGGTKFLAPGVPSRFSGSLSGGKATLTISSLQPEDFATYYCALWYSNRWVFGGGTKVEIKR
14.9 | 0.00165 | 111000 |  |  |  |  |  | 3.7 | 0.000374 | 101000 | 760 | 24.6 | SRP 2037-B10 F104D/LC6 (antibody, human IgG1, kappa, V domains shown, human IgG1, kappa) VH: EVQLVESGGGLVKPGGSLRLSCAASGFTFNKYAMNWVRQAPGKGLEWVARIRTKYNNYATYYADSVKDRFTISRDDSKNTAYLQMNSLKTEDTAVYYCVRHGNDGNSYISYWAYWGQGTPVTVSS VL: DIQMTQSPSSLSASVGDRVTITCGSSTGAVTSGYYPNWLQQKPGQAPRGLIGGTKFLAPGVPSRFSGSLSGGKATLTISSLQPEDFATYYCALWYSNRWVFGGGTKVEIKR
 |  |  |  |  |  |  |  | 15.8 | 0.000474 | 30100 | 1800 | 38.1 | SRP 2037-B10 S107D/R97D (antibody, human IgG1, lambda, V domains shown, human IgG1, lambda) VH: EVQLVESGGGLVKPGGSLRLSCAASGFTFNKYAMNWVRQAPGKGLEWVARIRTKYNNYATYYADSVKDRFTISRDDSKNTAYLQMNSLKTEDTAVYYCVRHGNFGNDYISYWAYWGQGTPVTVSS VL: QTVVTQEPSLTVSPGGTVTLTCGSSTGAVTSGYYPNWLQQKPGQAPRGLIGGTKFLAPGTPARFSGSLLGGKAALTLSGVQPEDEAEYYCALWYSNDWVFGGGTQLTVTG
 |  |  |  |  |  |  |  |  |  |  | 404 | 86.4 | SRP 2037-B10 S107D/LC5 (antibody, human IgG1, kappa, V domains shown, human IgG1, kappa) VH: EVQLVESGGGLVKPGGSLRLSCAASGFTFNKYAMNWVRQAPGKGLEWVARIRTKYNNYATYYADSVKDRFTISRDDSKNTAYLQMNSLKTEDTAVYYCVRHGNFGNDYISYWAYWGQGTPVTVSS VL: DTQVTQSPSLSASVGDRVTITCGSSTGAVTSGYYPNWLQQKPGQAPRGLIGGTKFLAPGVPSRFSGSGSGTDFTLTISSLQPEDFATYYCALWYSNRWVFGGGTKVEIKR
 |  |  | 953 | 0.58 |  |  |  | 1.49 | 0.000257 | 172000 | 2080 | 2.93 | 2037-B10_Lc-R97D (antibody, V domains shown, human IgG1, lambda; also called SRP 2037 R97D; 2037-B10 VL-R97D) VH: not shown VL: QTVVTQEPSLTVSPGGTVTLTCGSSTGAVTSGYYPNWLQQKPGQAPRGLIGGTKFLAPGTPARFSGSLLGGKAALTLSGVQPEDEAEYYCALWYSNDWVFGGGTQLTVTG
